Molecular target: β-catenin (endogenous) (UniProt P35222)
Experiment: anti-Cav-1 IP, β-catenin blot
Details: reference: WT Cav-1, DMSO; sites Y14

Substance: Caveolin-1 (Cav-1) (from UniProt Q03135) Y14F Cav-1, DMSO
- binding against the reference: weaker
